From patent US7105166 (Bristol-Myers Squibb, dated 2006)

B1: CTLA4/CD28Ig hybrid fusion protein HS1 (Fc fusion, not shown: a dimerising Fc or GST)
chain: NKILVKQSPMLVAYDNAYNLSCKYASPGKATEVRVTVLRQADSQVTEVCAATYMMGNELTFLDDSICTGTSSGNQVNLTIQGLRAMDTGLYICKVEVMYPPPYLDNEKSNGTIIHVKGKHLCPS
notes: mature numbering, not counted on the entries
B2: CTLA4/CD28Ig hybrid fusion protein HS2 (Fc fusion, not shown: a dimerising Fc or GST)
chain: MHVAQPAVVLASSRGIASFVCKYSYNLFSREFRASLHKGLDSAVEVCVVYGNYSQQLQVYSKTGFNCDGKLGNESVTFYLQNLYVNQTDIYFCKIELMYPPPYYLGIGNGTQIYVIDPEPCPDSD
notes: as for B1
B3: CTLA4/CD28Ig hybrid fusion protein HS3 (Fc fusion, not shown: a dimerising Fc or GST)
chain: MHVAQPAVVLASSRGIASFVCEYASPGKATEVRVTVLRQADSQVTEVCAATYMMGNELTFLDDSICTGTSSGNQVNLTIQGLRAMDTGLYICKVEVMYPPPYLDNEKSNGTIIHVKGKHLCPS
notes: as for B1
B4: CTLA4/CD28Ig hybrid fusion protein HS4 (Fc fusion, not shown: a dimerising Fc or GST)
chain: NKILVKQSPMLVAYDNAYNLSCKYSYNLFSREFRASLHKGLDSAVEVCVVYGNYSQQLQVYSKTGFNCDGKLGNESVTFYLQNLYVNQTDIYFCKIELMYPPPYYLGIGNGTQIYVIDPEPCPDSD
notes: as for B1
B5: CTLA4/CD28Ig hybrid fusion protein HS6 (Fc fusion, not shown: a dimerising Fc or GST)
chain: MHVAQPAVVLASSRGIASFVCEYSYNLFSREVRVTVLRQADSQVTEVCAATYMMGNELTFLDDSICTGTSSGNQVNLTIQGLRAMDTGLYICKVELMYPPPYYLGIGNGTQIYVIDPEPCPDSD
notes: as for B1
B6: CTLA4/CD28Ig hybrid fusion protein HS4-A (Fc fusion, not shown: a dimerising Fc or GST)
chain: NKILVKQSPMLVAYDNAYNLSCKYSYNLFSREFRASLHKGLDSAVEVCVVYGNYSQQLQVYSKTGFNCDGKLGNESVTFYLQNLYVNQTDIYFCKIELMYPPPYYLGIGNGTQIHVKGKHLCPS
notes: as for B1
B7: B7 antigen (B7-1, CD80) expressed on cells (ligand, human, UniProt P33681 35-288, looked up)
chain: VIHVTKEVKEVATLSCGHNVSVEELAQTRIYWQKEKKMVLTMMSGDMNIWPEYKNRTIFDITNNLSIVILALRPSDEGTYECVVLKYEKDAFKREHLAEVTLSVKADFPTPSISDFEIPTSNIRRIICSTSGGFPEPHLSWLENGEELNAINTTVSQDPETELYAVSSKLDFNMTTNHSFMCLIKYGHLRVNQTFNWNTTKQEHFPDNLLPSWAITLISVNGIFVICCLTYCFAPRCRERRRNERLRRESVRPV
notes: whole, on cells; Stably transfected CHO cells; in the MLR and IgM assays the B7 antigen of the stimulating B cells; also called B7^+ CHO cells; B7-1 positive CHO cells
B8: CD7 expressed on transfected COS cells (receptor, UniProt P09564 26-240, looked up)
chain: AQEVQQSPHCTTVPVGASVNITCSTSGGLRGIYLRQLGPQPQDIIYYEDGVVPTTDRRFRGRIDFSGSQDNLTITMHRLQLSDTGTYTCQAITEVNVYGSGTLVLVTEEQSQGWHRCSDAPPRASALPAPPTGSALPDPQTASALPDPPAASALPAALAVISFLLGLGLGVACVLARTQIKKLCSWRDKNSAACVVYEDMSHSRCNTLSSPNQYQ
notes: whole, on cells; Control transfectant; also called CD7-transfected COS cells

What was measured:
[1] = biological target: B7; experiment: B7-1+ CHO cell enzyme immunoassay; binding activity relative to CTLA4Ig, from the concentrations giving the same A450
[2] = biological target: B7; experiment: enzyme immunoassay on fixed B7-1+ CHO cells
[3] = biological target: T1, CD5Ig (human, UniProt P06127 25-371; P01857 99-330 = IgG part); experiment: indirect immunofluorescence, FACS, FITC goat anti-human Ig second step
T1 construct: range 1-347;domain: hinge, CH2 and CH3 regions; Control fusion protein; also called control CD5Ig fusion protein
Protocol: Prior to staining, COS or CHO cells were removed from their culture vessels by incubation in PBS containing 10 mM EDTA. Cells were first incubated with mAbs or Ig fusion proteins at 10 micro grams/ml in DMEM containing 10% FBS for 1–2 hr at 4 degrees C. Cells were then washed, and incubated for an additional 0.5–2 hrs at 4 degrees C. with FITC-conjugated goat anti-mouse immunoglobulin or with FITC-conjugated goat anti-human IgCγ serum (both from Tago, Burlingame, Calif.). When binding of both mAbs and Ig fusion proteins were measured in the same experiment, FITC-conjugated anti-mouse and anti-human second step reagents were mixed together before use. Fluorescence on a total of 10,000 cells was then analyzed by FACS^R.
Binding was detected by FACS^R following addition of FITC-conjugated goat anti-human Ig second step reagents. A total of 10,000 stained cells were analyzed by FACS^R.

[4] = biological target: T1, CD5Ig; experiment: indirect immunofluorescence, FACS, transfected COS cells, FITC anti-mouse and anti-human Ig second step
Protocol: Immunostaining and FACS^R Analysis. Prior to staining, COS or CHO cells were removed from their culture vessels by incubation in PBS containing 10 mM EDTA. Cells were first incubated with mAbs or Ig fusion proteins at 10 micro grams/ml in DMEM containing 10% FBS for 1–2 hr at 4 degrees C. Cells were then washed, and incubated for an additional 0.5–2 hrs at 4 degrees C. with FITC-conjugated goat anti-mouse immunoglobulin or with FITC-conjugated goat anti-human IgCγ serum (both from Tago, Burlingame, Calif.). When binding of both mAbs and Ig fusion proteins were measured in the same experiment, FITC-conjugated anti-mouse and anti-human second step reagents were mixed together before use. Fluorescence on a total of 10,000 cells was then analyzed by FACS^R.
Cells were then washed and binding was detected by a mixture of FITC-conjugated goat anti-mouse Ig and FITC-conjugated goat anti-human Ig second step reagents. Transfected cells were tested for expression of the appropriate cell surface markers by indirect immunostaining and fluorescence was measured using FACS^R analysis as described above.

T1 sequence (P06127 other isoform, or with tags, fused parts or gaps limits assumed): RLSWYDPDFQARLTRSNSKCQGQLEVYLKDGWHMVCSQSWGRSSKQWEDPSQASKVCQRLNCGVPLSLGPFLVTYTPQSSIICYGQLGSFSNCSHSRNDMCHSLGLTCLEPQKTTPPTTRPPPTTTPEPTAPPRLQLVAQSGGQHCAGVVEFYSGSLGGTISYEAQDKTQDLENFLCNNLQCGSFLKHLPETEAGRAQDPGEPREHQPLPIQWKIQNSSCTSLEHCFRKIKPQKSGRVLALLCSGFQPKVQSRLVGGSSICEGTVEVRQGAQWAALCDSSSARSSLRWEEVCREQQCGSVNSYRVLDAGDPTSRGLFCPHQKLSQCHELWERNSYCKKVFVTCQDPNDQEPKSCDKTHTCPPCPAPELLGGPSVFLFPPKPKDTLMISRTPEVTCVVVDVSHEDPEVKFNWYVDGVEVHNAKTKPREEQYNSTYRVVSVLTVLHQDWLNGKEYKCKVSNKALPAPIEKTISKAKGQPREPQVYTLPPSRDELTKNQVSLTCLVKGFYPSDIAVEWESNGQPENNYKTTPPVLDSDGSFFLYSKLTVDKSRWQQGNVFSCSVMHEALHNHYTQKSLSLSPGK

| Binder | % B7 binding activity [1] | other results |
| --- | --- | --- |
| B1 | < 0.1% |  |
| B2 | 27% |  |
| B3 | < 0.1% |  |
| B4 | 16% | fold less binding than wild type CTLA4Ig [2]: ~5 fold; increase in binding relative to CD28Ig [2]: ~2.5 orders of magnitude |
| B5 | 20% |  |
| B6 | 2% | % of wild type binding [2]: ~2% |
| B7 |  | binding result [3]: no binding (tested: 10 µg/ml (from the text)) |
| B8 |  | binding result [4]: no binding (tested: 10 µg/ml (from the text)) |
